Experiment [1] deals with GFRα1 soluble form (Homo sapiens) (UniProt P56159). Briefly: SPR. As to conditions: cited from earlier work.
Experiment [2] addresses T1, GFRα1 (Homo sapiens, UniProt P56159).
T1 chain: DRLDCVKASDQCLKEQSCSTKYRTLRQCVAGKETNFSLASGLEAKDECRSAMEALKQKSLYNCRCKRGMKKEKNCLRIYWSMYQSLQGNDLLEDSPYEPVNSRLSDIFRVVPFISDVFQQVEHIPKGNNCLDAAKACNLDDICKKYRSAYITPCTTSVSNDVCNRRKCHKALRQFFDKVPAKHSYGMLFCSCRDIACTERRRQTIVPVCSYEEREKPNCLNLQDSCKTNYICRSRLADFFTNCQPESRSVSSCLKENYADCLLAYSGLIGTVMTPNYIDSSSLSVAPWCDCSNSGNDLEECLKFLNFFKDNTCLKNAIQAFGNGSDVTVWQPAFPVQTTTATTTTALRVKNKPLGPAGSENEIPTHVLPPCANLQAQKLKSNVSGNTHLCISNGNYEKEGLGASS
Briefly: MST.

The Kd is a measure of binding affinity in units of concentration.

For GDNF (from UniProt P39905), the Kd in experiment [1] was 0.63 nM.

B1: GDNF (protein)
chain: KRSPDKQMAVLPRRERNRQAAAANPENSRGKGRRGQRGKNRGCVLTAIHLNVTDLGLGYETKEELIFRYCSGSCDAAETTYDKILKNLSRNRRLVSDKVGQACCRPIAFDDDLSFLDDNLVYHILRKHSAKRCGCI
B1 had a Kd in experiment [2] of 260 nM.

(Values after article PMC10565809 (2022).)
